Experimental data published in the Immune Epitope Database (IEDB).

Key:
HLA-A*02:01 [1] = assay: IEDB peptide-MHC binding, purified MHC/competitive/radioactivity; filed as Kd, often an IC50 or EC50 that approximates it; ≥ and ≤ were set here for values at or beyond the usual limits of such assays; details: source organism: Dengue virus 4 Philippines/H241/1956
HLA-A*02:17 = assay: as above; details: source organism: Dengue virus 4 Philippines/H241/1956
HLA-A*68:02 = assay: IEDB peptide-MHC binding, purified MHC/competitive/fluorescence; filed as Kd, often an IC50 or EC50 that approximates it; ≥ and ≤ were set here for values at or beyond the usual limits of such assays; details: source organism: Escherichia coli HS
HLA-A*24:03 = assay: as above
HLA-B*18:01 [2] = assay: IEDB peptide-MHC binding, purified MHC/competitive/radioactivity; filed as Kd, often an IC50 or EC50 that approximates it; ≥ and ≤ were set here for values at or beyond the usual limits of such assays
HLA-B*40:01 = assay: as above
HLA-B*40:02 = assay: as above
HLA-B*44:02 = assay: as above
HLA-B*44:03 = assay: as above
HLA-B*45:01 = assay: as above
HLA-A*02:01 [3] = assay: IEDB peptide-MHC binding, purified MHC/competitive/fluorescence; filed as Kd, often an IC50 or EC50 that approximates it; ≥ and ≤ were set here for values at or beyond the usual limits of such assays; details: source organism: Homo sapiens
HLA-A*03:01 = assay: as above; details: source organism: Homo sapiens
HLA-A*26:01 = assay: as above; details: source organism: Homo sapiens
HLA-B*15:01 = assay: as above; details: source organism: Homo sapiens
HLA-B*18:01 [4] = assay: as above; details: source organism: Homo sapiens
HLA-B*27:03 = assay: as above; details: source organism: Homo sapiens
HLA-B*46:01 = assay: as above; details: source organism: Homo sapiens
HLA-B*57:01 = assay: as above; details: source organism: Homo sapiens
HLA-A*23:01 = assay: IEDB peptide-MHC binding, purified MHC/competitive/radioactivity; filed as Kd, often an IC50 or EC50 that approximates it; ≥ and ≤ were set here for values at or beyond the usual limits of such assays; details: source organism: Lassa virus Josiah
HLA-A*24:02 = assay: as above; details: source organism: Lassa virus Josiah
HLA-A*29:02 = assay: as above; details: source organism: Lassa virus Josiah
[5] = source organism: SARS coronavirus Tor2
[6] = source organism: Lymphocytic choriomeningitis virus (strain Armstrong)
[7] = source organism: Mammarenavirus juninense
[8] = source organism: Lassa virus Josiah

Row | Sequence | Kd (HLA-B*18:01 [2]; [5]) | Kd (HLA-B*40:01; [5]) | Kd (HLA-B*40:02; [5]) | Kd (HLA-B*44:02; [5]) | Kd (HLA-B*44:03; [5]) | Kd (HLA-B*45:01; [5]) | further results
1 | LMLVALLGA | – | – | – | – | – | – | Kd (HLA-A*02:01 [1]): 10400 nM; Kd (HLA-A*02:17): 2920 nM
2 | NCADHFEGV | – | – | – | – | – | – | Kd (HLA-A*68:02): 1.5 nM
3 | PFGQWDQTF | – | – | – | – | – | – | Kd (HLA-A*24:03; source organism: Yersinia pestis Antiqua): 209 nM
4 | QEYADVFHLY | 147 nM | 553 nM | 110 nM | 11.9 nM | 6.61 nM | 608 nM | –
5 | REAVESCPL | – | – | – | – | – | – | Kd (HLA-B*18:01 [2]; [6]): 10300 nM; Kd (HLA-B*40:01; [6]): 11100 nM; Kd (HLA-B*40:02; [6]): 58.7 nM; Kd (HLA-B*44:02; [6]): 5840 nM; Kd (HLA-B*44:03; [6]): 13200 nM; Kd (HLA-B*45:01; [6]): ≥ 60800 nM
6 | REFVFKNKDG | ≥ 70500 nM | 156 nM | 11500 nM | 11500 nM | 515 nM | 5420 nM | –
7 | SDTQIPGVC | – | – | – | – | – | – | Kd (HLA-B*18:01 [2]; [7]): ≥ 77500 nM; Kd (HLA-B*40:01; [7]): ≥ 65600 nM; Kd (HLA-B*40:02; [7]): 12200 nM; Kd (HLA-B*44:02; [7]): ≥ 56200 nM; Kd (HLA-B*44:03; [7]): ≥ 78100 nM; Kd (HLA-B*45:01; [7]): ≥ 51000 nM
8 | SEAFEYYHTL | 2140 nM | 1.18 nM | 6.54 nM | 10.5 nM | 18.4 nM | 60.4 nM | –
9 | SETLLPLTQY | 66.5 nM | 13100 nM | 1880 nM | 52.1 nM | 33.2 nM | 1750 nM | –
10 | SEVGICLST | 4510 nM | 241 nM | 10.6 nM | 120 nM | 20.4 nM | 8.52 nM | –
11 | SFYYIWKSYV | ≥ 70500 nM | 1150 nM | 2320 nM | 415 nM | 319 nM | 1150 nM | –
12 | WLGHPFTPV | – | – | – | – | – | – | Kd (HLA-A*02:01 [3]): 0.3 nM; Kd (HLA-A*03:01): ≥ 20000 nM; Kd (HLA-A*24:03; source organism: Homo sapiens): ≥ 20000 nM; Kd (HLA-A*26:01): ≥ 20000 nM; Kd (HLA-B*15:01): ≥ 20000 nM; Kd (HLA-B*18:01 [4]): ≥ 20000 nM; Kd (HLA-B*27:03): ≥ 20000 nM; Kd (HLA-B*46:01): ≥ 20000 nM; Kd (HLA-B*57:01): ≥ 20000 nM
13 | YDHALMSII | – | – | – | – | – | – | Kd (HLA-A*23:01): 7730 nM; Kd (HLA-A*24:02): ≥ 30800 nM; Kd (HLA-A*29:02): ≥ 46600 nM; Kd (HLA-B*18:01 [2]; [8]): ≥ 25400 nM; Kd (HLA-B*40:01; [8]): ≥ 26600 nM; Kd (HLA-B*40:02; [8]): 49.5 nM; Kd (HLA-B*44:02; [8]): 7050 nM; Kd (HLA-B*44:03; [8]): ≥ 33400 nM; Kd (HLA-B*45:01; [8]): ≥ 68600 nM
